The source of these data is patent publication US20120316071A1 (published 2012).

Positions count from the first letter of the chain named. Names may count otherwise.

The target in assay [1] is T1, rHuman P-Cadherin/Fc Chimera (human, UniProt P22223 108-654).
T1 construct: Bought from R&D Systems; not shown: Fc part of a bought chimera
The experiment in a line: ECL Multispot (MSD) assay, antigens spotted on plate, 10 nM Fab; blank of this well 184.

The target of assay [2] is T2, Recombinant Human DLL4 (delta-like protein 4) (human, UniProt Q9NR61 27-524).
T2 construct: Bought recombinant protein; also called rHuman DLL4
The assay is described as above.

For assay [3], the target named is T3, rHuman IGF-1 sR (insulin-like growth factor-1 soluble receptor) (human, UniProt P08069 31-932).
T3 construct: Bought soluble receptor
The assay is described as above.

Assay [4] addresses T4, rHuman HGF R/c-MET/Fc Chimera (human, UniProt P08581 25-932).
T4 construct: Bought from R&D Systems; also called HGF R/Fc; not shown: Fc part of a bought chimera
The description is as above.

The target of assay [5] is T5, rHuman EGF R/Fc Chimera (human, UniProt P00533 25-645).
T5 construct: Bought from R&D Systems; not shown: Fc part of a bought chimera
The assay is described as above.

Assay [6] has as its target T6, rHuman ErbB2/Fc Chimera (human, UniProt P04626 23-652).
T6 construct: Bought from R&D Systems; not shown: Fc part of a bought chimera
The description is as above.

Assay [7] addresses T1, rHuman P-Cadherin/Fc Chimera. Kind of assay: ECL Multispot (MSD) assay, antigens spotted on plate, 10 nM Fab; blank of this well 254.
The target in assay [8] is T2, Recombinant Human DLL4 (delta-like …). Described as above.
Assay [9] deals with T3, rHuman IGF-1 sR (insulin-like growth …). Described as above.
Assay [10] concerns the target T4, rHuman HGF R/c-MET/Fc Chimera. The assay is described as above.
For assay [11], the target named is T5, rHuman EGF R/Fc Chimera. Described as above.
In assay [12] the target is T6, rHuman ErbB2/Fc Chimera. The description is as above.
Assay [13] deals with T7, rHuman CD44/Fc Chimera, CF (R&D Systems Cat#3660-CD) (human, UniProt P16070 21-220).
T7 construct: Bought protein
Kind of assay: ECL multispot (MSD), antigen spotted; blank spot of this well 271.

The target in assay [14] is T8, rHuman Notch-1/Fc Chimera, CF (R&D Systems Cat#3647-TK) (human, UniProt P46531 19-526).
T8 construct: Bought protein
Described as above.

The target in assay [15] is T9, rHuman IGF-1 sR, CF (R&D Systems Cat#391-GR) (human, UniProt P08069 31-932).
T9 construct: Bought soluble receptor; also called insulin-like growth factor-1 soluble receptor
Described as above.

For assay [16], the target named is T10, rHuman ErbB2/Fc Chimera, CF (R&D Systems Cat#1129-ER) (human, UniProt P04626 23-652).
T10 construct: Bought protein; also called human epidermal growth factor 2 receptor
The description is as above.

For assay [17], the target named is T11, rHuman EGF R/Fc Chimera, CF (R&D Systems Cat#344-ER) (human, UniProt P00533 25-645).
T11 construct: Bought protein; also called epidermal growth factor receptor
Described as above.

In assay [18] the target is T12, Recombinant Human DLL4 (R&D Systems Cat#1506-D4/CF) (human, UniProt Q9NR61 27-524).
T12 construct: Bought recombinant protein; also called delta-like protein 4; rHuman DLL4
Described as above.

The target of assay [19] is T13, rHuman P-Cadherin/Fc Chimera, CF (R&D Systems Cat#861-PC) (human, UniProt P22223 108-654).
T13 construct: Bought protein
The assay is described as above.

The target of assay [20] is T14, rHuman HGF R/c-MET/Fc Chimera, CF (R&D Systems Cat#358-MT/CF) (human, UniProt P08581 25-932).
T14 construct: Bought protein; also called HGF R/Fc; hepatocyte growth factor receptor
The description is as above.

In assay [21] the target is T15, rHuman Erythropoietin R/Fc Chimera, CF (R&D Systems Cat#963-ER) (human, UniProt P19235 25-250).
T15 construct: Bought protein; also called EPO R; EPO R/Fc
T15 sequence (looked up): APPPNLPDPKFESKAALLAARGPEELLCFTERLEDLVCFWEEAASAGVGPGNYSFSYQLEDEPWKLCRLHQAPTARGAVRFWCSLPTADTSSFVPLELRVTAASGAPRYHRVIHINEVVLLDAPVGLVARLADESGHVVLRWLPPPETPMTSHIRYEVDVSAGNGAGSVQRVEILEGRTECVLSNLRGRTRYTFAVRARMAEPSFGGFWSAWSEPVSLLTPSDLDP
The description is as above.

In assay [22] the target is T7, rHuman CD44/Fc Chimera, CF (R&D Systems …). Kind of assay: ECL multispot (MSD), antigen spotted; blank spot of this well 273.
Assay [23] deals with T8, rHuman Notch-1/Fc Chimera, CF (R&D …). Described as above.
In assay [24] the target is T9, rHuman IGF-1 sR, CF (R&D Systems …). Described as above.
Assay [25] addresses T10, rHuman ErbB2/Fc Chimera, CF (R&D …). Described as above.
The target in assay [26] is T11, rHuman EGF R/Fc Chimera, CF (R&D …). The assay is described as above.
The target in assay [27] is T13, rHuman P-Cadherin/Fc Chimera, CF (R&D …). Described as above.
In assay [28] the target is T14, rHuman HGF R/c-MET/Fc Chimera, CF (R&D …). The description is as above.
The target of assay [29] is T15, rHuman Erythropoietin R/Fc Chimera, CF …. Described as above.
Assay [30] addresses T7, rHuman CD44/Fc Chimera, CF (R&D Systems …). Kind of assay: ECL multispot (MSD), antigen spotted; blank spot of this well 209.
Assay [31] has as its target T8, rHuman Notch-1/Fc Chimera, CF (R&D …). The assay is described as above.
For assay [32], the target named is T9, rHuman IGF-1 sR, CF (R&D Systems …). Described as above.
The target in assay [33] is T10, rHuman ErbB2/Fc Chimera, CF (R&D …). The assay is described as above.
The target in assay [34] is T11, rHuman EGF R/Fc Chimera, CF (R&D …). The assay is described as above.
Assay [35] has as its target T13, rHuman P-Cadherin/Fc Chimera, CF (R&D …). Described as above.
Assay [36] concerns the target T14, rHuman HGF R/c-MET/Fc Chimera, CF (R&D …). Described as above.
For assay [37], the target named is T15, rHuman Erythropoietin R/Fc Chimera, CF …. Described as above.
Assay [38] concerns the target T16, Recombinant Human DLL4 (human, UniProt Q9NR61 27-524).
T16 construct: also called delta-like protein 4; rHuman DLL4
The experiment in a line: ECL (MSD) multispot binding assay, DLL4 signal over blank spot.

For assay [39], the target named is T16, Recombinant Human DLL4. Kind of assay: ECL (MSD) multispot binding assay, DLL4 spotted on plate, Fab in solution.

T14 sequence (P08581 25-932, change not shown): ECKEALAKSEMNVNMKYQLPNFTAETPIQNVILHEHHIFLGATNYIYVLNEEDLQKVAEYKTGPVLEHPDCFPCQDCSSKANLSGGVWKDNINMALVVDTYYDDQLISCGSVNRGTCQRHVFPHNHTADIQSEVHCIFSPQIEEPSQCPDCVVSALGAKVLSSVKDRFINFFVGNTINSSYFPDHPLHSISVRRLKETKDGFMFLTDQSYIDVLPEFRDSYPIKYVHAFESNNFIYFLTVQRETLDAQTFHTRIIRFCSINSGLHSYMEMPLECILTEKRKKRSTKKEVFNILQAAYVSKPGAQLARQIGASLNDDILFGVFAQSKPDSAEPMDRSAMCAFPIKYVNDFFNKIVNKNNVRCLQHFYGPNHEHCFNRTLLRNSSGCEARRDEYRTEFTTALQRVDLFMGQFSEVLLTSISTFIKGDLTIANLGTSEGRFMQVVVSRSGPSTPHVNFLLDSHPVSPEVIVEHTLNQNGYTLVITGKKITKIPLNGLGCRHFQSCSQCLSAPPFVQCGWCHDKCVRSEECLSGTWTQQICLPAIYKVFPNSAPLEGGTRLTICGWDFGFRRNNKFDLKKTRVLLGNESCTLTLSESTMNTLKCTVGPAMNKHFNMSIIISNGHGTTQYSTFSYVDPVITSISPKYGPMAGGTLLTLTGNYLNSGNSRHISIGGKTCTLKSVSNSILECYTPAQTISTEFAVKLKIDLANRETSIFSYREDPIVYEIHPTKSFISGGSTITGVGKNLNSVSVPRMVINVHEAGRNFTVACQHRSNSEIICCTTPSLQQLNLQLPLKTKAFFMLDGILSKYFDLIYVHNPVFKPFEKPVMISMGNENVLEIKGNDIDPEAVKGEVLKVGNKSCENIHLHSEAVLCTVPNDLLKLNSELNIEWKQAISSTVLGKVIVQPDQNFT
T4 sequence (P08581 25-932, change not shown): as above

B1: Fab VH1-46_IGHD6-6*01_IGHJ1*01 S102A/S103P/S104F/H111F & L6_IGKJ1*01 (Fab, V domains shown)
VH: QVQLVQSGAEVKKPGASVKVSCKASGYTFTSYYMHWVRQAPGQGLEWMGIINPSGGSTSYAQKFQGRVTMTRDTSTSTVYMELSSLRSEDTAVYYCAREEYAPFSAEYFQFWGQGTLVTVSS
VL: not shown
notes: Fab made in E. coli; VH was cloned into Plasmid A (CH1, His6 and Flag tags) and VL into Plasmid C (kappa constant region); also called APFF; H:APFF & L:wt
For the molecule B1, the ECL signal in [1] is 240; in assay [2], 132000; in assay [3], 173; in [4] it was 263; with rHuman EGF R/Fc Chimera [5], 409; with rHuman ErbB2/Fc Chimera [6], 322. Also, the ECL signal is 138 in assay [7]; 148000 in [8]; 306 in [9]; 176 in [10]; 209 with rHuman EGF R/Fc Chimera [11]; 351 in the assay with rHuman ErbB2/Fc Chimera [12].

B2: Fab VH1-46_IGHD6-6*01_IGHJ1*01 S102A/S103P/S104F (APF) & L6_IGKJ1*01 R91P (Fab, V domains shown)
VH: B1 VH with F111H
VL: EIVLTQSPATLSLSPGERATLSCRASQSVSSYLAWYQQKPGQAPRLLIYDASNRATGIPARFSGSGSGTDFTLTISSLEPEDFAVYYCQQPSNWPPWTFGQGTKVEIKR
notes: Fab made in E. coli: VH cloned into Plasmid A (CH1, His6 and Flag tags), VL into Plasmid C (kappa CL); also called APF / R91P
On to B2, for which the ECL signal in [13] came out at 252; in [14], 228; in assay [15], 199; in assay [16] it was 333; in assay [17], 216; in assay [18], 1280. Moreover, the values for the ECL signal in [19], in [20] and in [21] were 296, 273 and 275, respectively.

B3: Fab VH1-46_IGHD6-6*01_IGHJ1*01 S102A/S103P/S104F (APF) & L6_IGKJ1*01 R91L (Fab, V domains shown)
VH: B1 VH with F111H
VL: B2 VL with P91L
notes: Fab made in E. coli: VH cloned into Plasmid A (CH1, His6 and Flag tags), VL into Plasmid C (kappa CL); also called APF / R91L
For the molecule B3, the ECL signal in assay [22] came to 236; in assay [23] it was 383; in assay [24], 382; in assay [25], 526; in assay [26], 367; in [27], 437. Also, the ECL signal was found to be 255 in [28] and 459 in assay [29].

B4: Fab VH1-46_IGHD6-6*01_IGHJ1*01 S102A/S103P/S104F (APF) & L6_IGKJ1*01 R91G (Fab, V domains shown)
VH: B1 VH with F111H
VL: B2 VL with P91G
notes: Fab made in E. coli: VH cloned into Plasmid A (CH1, His6 and Flag tags), VL into Plasmid C (kappa CL); also called APF / R91G
With B4, the ECL signal came out at 163 in assay [30]; 170 in assay [31]; 260 in assay [32]; 236 in [33]; 271 in [34]; 235 in assay [35]. The ECL signal was determined as 239 in assay [36] and 306 in assay [37].

B5: Fab VH1-46_IGHD6-6*01_IGHJ1*01 S102A/S103P/S104F/H111F (APFF) & L6_IGKJ1*01 S92T (Fab, V domains shown)
VH: B1 VH
VL: B2 VL with P91R, S92T
notes: Fab from E. coli; VH in Plasmid A (CH1, His6 and Flag tags), VL in Plasmid C (kappa CL); also called APFF & S92T
With B5, the Signal/Blank with Recombinant Human DLL4 [38] was determined as 194. The “ECL signal” value with Recombinant Human DLL4 [39] came out at 54100.
